5 substances from PMC6201568 can be followed below.

Holding throughout (conditions): 285 mM Tris-HCl pH 8.0, 0.14 mg/mL BSA, 1.43 mM DTT, 5% glycerol, 0.04 mg/mL poly(dI-dC), 3.06 mM EDTA, 10 uL, 30 min at 25 C, 6% PAGE in TAE pH 8.2
The test system of data set [1] is PhaR-His6 (Bradyrhizobium diazoefficiens USDA110). The data set is described as follows: EMSA. (Mobility shift assays separate free from complexed probe on a gel.)
The test system of data set [2] is T1, PhaR-His6 (Bradyrhizobium diazoefficiens USDA110), ORF:9916d0df.
T1 sequence: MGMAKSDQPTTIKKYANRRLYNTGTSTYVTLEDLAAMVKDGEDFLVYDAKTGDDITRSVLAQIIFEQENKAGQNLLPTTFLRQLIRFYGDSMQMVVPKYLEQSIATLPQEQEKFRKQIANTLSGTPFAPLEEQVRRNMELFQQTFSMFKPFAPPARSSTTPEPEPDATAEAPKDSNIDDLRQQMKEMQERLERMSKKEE
Description: DNase I footprinting.

The test system is the same in data set [3]. The data set is described as follows: EMSA.

The substance phaR promoter displayed a K half in data set [1] (half of DNA in complex at highest concentration) of 110 nM. ppc promoter: the K half in data set [1] (about half of DNA shifted only at highest concentration) was 110 nM. As for “CTAAGGTGATGTTCTCAAACGGCTTTTGGCCGCTTGCGGAAGCTGAACACGTCCAGGGAATCAAGGTAGGGGTCCGCGGTTTCCAAAAGCTTAAGGAACCCTTGCGGGAAACCCCGGGAATCTCTTCGGTTTGGATCTAGTTTTTGTGCGACGCACAAGATTCTTGACTTTTTTGTGCGTTGCACTAATTGTGGGCAGAGTCAGGGAGCCGGGGCTTCCCGACGCGAGCCAGGGAAAAGGATTCCGAAATGTTCAAGGTTGAAGACTTTCAGAGCTACGGGAAAGAGCAGTTC (double strand) [FAM-phaP1 promoter (footprint)]”, in data set [2], the binding entry is “binds”. Turning to “CACAAGATGATGCTCGATCACTACCAGCAGACCAAGAATCTCCTGGTCAGCTACAGCCCGAAGAAGCTCGGCTTCTTCTGATCGGAACAGGAGCGGGCGGCGCCGTTCTGGCGCCGCTCGTTCCGGTAAACGGGACCTGGCCCGCACGGCGTTAGATTTGTTGCCTGATCAGCGCCAAAGATTTTCCAATATTTCGATCACGTTGCAGTGCGGCATAATGAATGTCGTGTCATGCCGCCGCGGTGCTTTCCAAGGGTGTTTGACTTGGGTTAGAGAGGACGAAAGTTTTCTCTGACCCGG (double strand) [pdhA promoter]”, the binding entry in data set [3] was “binds more weakly”. “CTCTCACTTGCAAGACGCTGAGAACGGGAACCCGGCGGCCGATGCCGCAGGGCGGGAAGAGTACGCAACGCAACAAAATAAGCATTTTCAAAGGGGTCACGCTACCGTTTTGTGCGCCACGGTTAATCGGGCAGCAAAAACGT (double strand) [phaR promoter]” showed a K half in data set [3] of 110 nM.
